From patent US20110129459A1 (Chugai, published 2011)

T1: rhNR10 (recombinant human NR10) (human, UniProt Q8NI17 20-519, limits assumed)
T1 construct: also called IL-31 receptor; IL31RA
T1 sequence: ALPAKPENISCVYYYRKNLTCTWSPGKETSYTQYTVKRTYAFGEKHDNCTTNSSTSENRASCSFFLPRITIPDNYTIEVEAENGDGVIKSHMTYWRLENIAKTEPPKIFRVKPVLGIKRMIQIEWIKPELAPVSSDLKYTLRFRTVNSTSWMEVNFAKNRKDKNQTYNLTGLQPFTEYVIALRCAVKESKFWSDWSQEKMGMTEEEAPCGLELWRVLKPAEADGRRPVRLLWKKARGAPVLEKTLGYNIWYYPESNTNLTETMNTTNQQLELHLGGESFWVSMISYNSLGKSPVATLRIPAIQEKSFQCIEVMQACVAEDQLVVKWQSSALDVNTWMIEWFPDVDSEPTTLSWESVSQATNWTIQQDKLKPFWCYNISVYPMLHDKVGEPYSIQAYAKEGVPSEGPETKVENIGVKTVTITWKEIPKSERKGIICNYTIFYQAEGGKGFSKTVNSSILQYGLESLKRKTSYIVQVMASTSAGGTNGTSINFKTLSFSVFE

T2: cytoplasmic domain-lacking human NR10 on CHO cells (hNR10-expressing CHO cells) (human, UniProt Q8NI17 20-553)
T2 construct: also called NR10-expressing cells
T2 sequence: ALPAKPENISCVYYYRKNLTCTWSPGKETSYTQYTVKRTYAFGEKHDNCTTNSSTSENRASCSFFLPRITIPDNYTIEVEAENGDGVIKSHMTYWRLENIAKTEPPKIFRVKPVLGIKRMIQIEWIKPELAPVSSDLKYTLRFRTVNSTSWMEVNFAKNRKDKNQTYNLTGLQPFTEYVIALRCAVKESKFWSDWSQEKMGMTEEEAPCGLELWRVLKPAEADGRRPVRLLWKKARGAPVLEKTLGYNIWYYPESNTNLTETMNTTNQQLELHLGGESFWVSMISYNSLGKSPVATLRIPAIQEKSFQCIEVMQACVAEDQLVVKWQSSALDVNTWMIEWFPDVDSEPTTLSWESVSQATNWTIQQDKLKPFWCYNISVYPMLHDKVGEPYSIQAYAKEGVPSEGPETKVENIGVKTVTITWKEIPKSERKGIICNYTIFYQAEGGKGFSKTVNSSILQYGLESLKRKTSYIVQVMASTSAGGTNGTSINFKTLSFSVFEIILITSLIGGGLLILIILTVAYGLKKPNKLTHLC


Key:
[1] = biological target: T1, rhNR10 (recombinant human NR10); experiment: SPR, Biacore T100; antibody captured on Protein A, rhNR10 as analyte
Procedure: Kinetic analysis of the antigen-antibody reaction was carried out using Biacore T100 (GE Healthcare Biosciences). The antigen-antibody interaction was measured by immobilizing rec-Protein A (hereinafter Protein A) (ZYMED) onto a sensor chip, capturing an antibody on the immobilized Protein A, and then reacting the antigen as an analyte. Various concentrations of rhNR10 were used as the antigen. The kinetic parameters, association rate constant kₐ (1/Ms) and dissociation rate constant kd (1/s), were calculated from the sensorgrams obtained by the measurement. Then, KD (M) was determined based on the rate constants. Each parameter was determined using Biacore T100 Evaluation Software version 1.1 (GE Healthcare Biosciences).
The running buffer used was HBS-EP+. Each antibody was prepared at 0.25 μg/ml, or prepared so that about 100 RU would bind to Protein A. rhNR10 used as an analyte was prepared at 0, 38.5, 77.0, and 154 nM, or at 0, 19.25, and 77.01 nM using HBS-EP+. In the measurement, first, the antibody solution was captured on Protein A, and an analyte solution was reacted at a flow rate of 20 μL/min for three minutes. Then, the solution was switched to HBS-EP+, and the dissociation phase was measured for five minutes. After measurement of the dissociation phase, the sensor chip was regenerated by washing with 10 mM glycine-HCl (pH 1.5). The obtained sensorgrams were kinetically analyzed using the Biacore-specific data analysis software, Biacore T100 Evaluation Software Version 1.1.

[2] = biological target: T2, cytoplasmic domain-lacking human NR10 …; experiment: FMAT competition on hNR10-expressing CHO cells: antibody titrated against FMAT Blue-labeled hIL-31; FL1 = cell-bound labeled hIL-31; mean±S.D. (n=3)
Procedure: Antibodies were assessed for the activity of inhibiting the IL-31/NR10 binding by using hNR10-expressing CHO cells as described below. The chimeric NS22 antibody and NS22_H0L0 (H chain, H0-SKSC/SEQ ID NO: 54; L chain, L0/SEQ ID NO: 56) were diluted at an appropriate concentration using Assay buffer (10 mM HEPES, 140 mM NaCl, 2.5 mM CaCl₂, 3 mM MgCl₂, 2% FBS, 0.01% NaN₃, pH7.4), and further eight serial dilutions were prepared at a common dilution ration of 2. The dilutions were added at 40 μl/well to plates (96-Well FMAT Plates, Applied Biosystems). Then, FMAT Blue-labeled hIL-31 was diluted 400 times with Assay buffer, and added at 20 μl/well. Finally, a cell suspension adjusted to 2.5×10⁵ cells/ml using Assay buffer was added at 40 μl/well (final 1×10⁴ cells/well). Two hours after addition of cells, the fluorescence (FL1) was measured using the 8200 Cellular Detection System (Applied Biosystems).
Each variant was tested for the activity of inhibiting the hIL-31/hNR10 binding by using FMAT. The test was carried out according to the method as described in Example 4.

Kd [1]	koff [1]	kon [1]	binding result [2]	IC50 (read off the curve) [2]	Binder
1.5 nM	0.00031 s⁻¹	200000 M⁻¹ s⁻¹	–	–	Ha101L0 (Ha101-SKSC / L0) (antibody, V domains shown) VH: QVQLVQSGAEVKKPGASVKVSCKASGYTFTGYVMNWVRQAPGQGLEWMGLINPYNGGTSYNQKFKGRVTITADESTSTAYMELSSLRSEDTAVYYCARDGYDDGPYTMDYWGQGTLVTVSS VL: DIQMTQSPSSLSASVGDRVTITCRTSENIYSFLAWYQQKPGKAPKLLIYNAKTLAKGVPSRFSGSGSGTDFTLTISSLQPEDFATYYCQHHYESPLTFGGGTKVEIKR
2.4 nM	0.00053 s⁻¹	220000 M⁻¹ s⁻¹	–	–	Ha103L0 (Ha103-SKSC / L0) (antibody, V domains shown) VH: QVQLVQSGAEVKKPGASVKVSCKASGYTFTGYIINWVRQAPGQGLEWMGLINPYNGGTSYNQKFKGRVTITADESTSTAYMELSSLRSEDTAVYYCARDGYDDGPYTMDYWGQGTLVTVSS VL: DIQMTQSPSSLSASVGDRVTITCRTSENIYSFLAWYQQKPGKAPKLLIYNAKTLAKGVPSRFSGSGSGTDFTLTISSLQPEDFATYYCQHHYESPLTFGGGTKVEIKR
2.1 nM	0.00056 s⁻¹	260000 M⁻¹ s⁻¹	–	–	Ha111L0 (Ha111-SKSC / L0) (antibody, V domains shown) VH: QVQLVQSGAEVKKPGASVKVSCKASGYTFTGYILNWVRQAPGQGLEWMGLINPYNGGTSYNQKFKGRVTITADESTSTAYMELSSLRSEDTAVYYCARDGYDDGPYTMDYWGQGTLVTVSS VL: DIQMTQSPSSLSASVGDRVTITCRTSENIYSFLAWYQQKPGKAPKLLIYNAKTLAKGVPSRFSGSGSGTDFTLTISSLQPEDFATYYCQHHYESPLTFGGGTKVEIKR
1.3 nM	0.00048 s⁻¹	370000 M⁻¹ s⁻¹	–	–	Ha204L0 (Ha204-SKSC / L0) (antibody, V domains shown) VH: QVQLVQSGAEVKKPGASVKVSCKASGYTFTGYIMNWVRQAPGQGLEWMGLINPYNGGTDYNQKFKGRVTITADESTSTAYMELSSLRSEDTAVYYCARDGYDDGPYTMDYWGQGTLVTVSS VL: DIQMTQSPSSLSASVGDRVTITCRTSENIYSFLAWYQQKPGKAPKLLIYNAKTLAKGVPSRFSGSGSGTDFTLTISSLQPEDFATYYCQHHYESPLTFGGGTKVEIKR
3 nM	0.00096 s⁻¹	320000 M⁻¹ s⁻¹	–	–	Ha219L0 (Ha219-SKSC / L0) (antibody, V domains shown) VH: QVQLVQSGAEVKKPGASVKVSCKASGYTFTGYIMNWVRQAPGQGLEWMGLINPYNGGTSYNPKFKGRVTITADESTSTAYMELSSLRSEDTAVYYCARDGYDDGPYTMDYWGQGTLVTVSS VL: DIQMTQSPSSLSASVGDRVTITCRTSENIYSFLAWYQQKPGKAPKLLIYNAKTLAKGVPSRFSGSGSGTDFTLTISSLQPEDFATYYCQHHYESPLTFGGGTKVEIKR
–	–	–	binds	–	Lp5 variant of H0L0 (antibody, V domains shown, copies: 2 + 2) VH: QVQLVQSGAEVKKPGASVKVSCKASGYTFTGYIMNWVRQAPGQGLEWMGLINPYNGGTSYNQKFKGRVTITADESTSTAYMELSSLRSEDTAVYYCARDGYDDGPYTMDYWGQGTLVTVSS VL: DIQMTQSPSSLSASVGDRVTITCRTSENIYSFLAWYQQKPGKAPKLLIYNAKTLAQGVPSRFSGSGSGTDFTLTISSLQPEDFATYYCQHHYESPLTFGGGTKVEIKR
–	–	–	binds	–	Lp6 variant of H0L0 (antibody, V domains shown, copies: 2 + 2) VH: QVQLVQSGAEVKKPGASVKVSCKASGYTFTGYIMNWVRQAPGQGLEWMGLINPYNGGTSYNQKFKGRVTITADESTSTAYMELSSLRSEDTAVYYCARDGYDDGPYTMDYWGQGTLVTVSS VL: DIQMTQSPSSLSASVGDRVTITCRTSENIYSFLAWYQQKPGKAPKLLIYNAKTLADGVPSRFSGSGSGTDFTLTISSLQPEDFATYYCQHHYESPLTFGGGTKVEIKR
–	–	–	binds	–	Hp1 variant of H0L0 (antibody, V domains shown) VH: QVQLVQSGAEVKKPGASVKVSCKASGYTFTGYIMNWVRQAPGQGLEWMGLINPYNGGTSYNQKFQGRVTITADESTSTAYMELSSLRSEDTAVYYCARDGYDDGPYTMDYWGQGTLVTVSS VL: DIQMTQSPSSLSASVGDRVTITCRTSENIYSFLAWYQQKPGKAPKLLIYNAKTLAKGVPSRFSGSGSGTDFTLTISSLQPEDFATYYCQHHYESPLTFGGGTKVEIK
–	–	–	binds	–	Hp5 variant of H0L0 (antibody, V domains shown) VH: QVQLVQSGAEVKKPGASVKVSCKASGYTFTGYIMNWVQQSPGQGLEWMGLINPYNGGTSYNQKFKGRVTITADESTSTAYMELSSLRSEDTAVYYCARDGYDDGPYTMDYWGQGTLVTVSS VL: DIQMTQSPSSLSASVGDRVTITCRTSENIYSFLAWYQQKPGKAPKLLIYNAKTLAKGVPSRFSGSGSGTDFTLTISSLQPEDFATYYCQHHYESPLTFGGGTKVEIK
–	–	–	–	~0.1 µg/mL	Hp6 variant of H0L0 (antibody, V domains shown) VH: QVQLVQSGAEVKKPGASVKVSCKASGYTFTGYIMNWVRQAPGQGLEWMGLINPYNGGTSYNDKFKGRVTITADESTSTAYMELSSLRSEDTAVYYCARDGYDDGPYTMDYWGQGTLVTVSS VL: DIQMTQSPSSLSASVGDRVTITCRTSENIYSFLAWYQQKPGKAPKLLIYNAKTLAKGVPSRFSGSGSGTDFTLTISSLQPEDFATYYCQHHYESPLTFGGGTKVEIK
–	–	–	binds	–	Hp7 variant of H0L0 (antibody, V domains shown) VH: QVQLVQSGAEVKKPGASVKVSCKASGYTFTGYIMNWVRQAPGQGLEWMGEINPYNGGTSYNQKFKGRVTITADESTSTAYMELSSLRSEDTAVYYCARDGYDDGPYTMDYWGQGTLVTVSS VL: DIQMTQSPSSLSASVGDRVTITCRTSENIYSFLAWYQQKPGKAPKLLIYNAKTLAKGVPSRFSGSGSGTDFTLTISSLQPEDFATYYCQHHYESPLTFGGGTKVEIK
–	–	–	binds	–	Hp8 variant of H0L0 (antibody, V domains shown) VH: QVQLVQSGAEVKKPGASVKVSCKASGYTFTGYIMNWVRQAPGQGLEWMGLIDPYNGGTSYNQKFKGRVTITADESTSTAYMELSSLRSEDTAVYYCARDGYDDGPYTMDYWGQGTLVTVSS VL: DIQMTQSPSSLSASVGDRVTITCRTSENIYSFLAWYQQKPGKAPKLLIYNAKTLAKGVPSRFSGSGSGTDFTLTISSLQPEDFATYYCQHHYESPLTFGGGTKVEIK
–	–	–	–	~0.1 µg/mL	Hp9 variant of H0L0 (antibody, V domains shown) VH: QVQLVQSGAEVKKPGASVKVSCKASGYTFTGYIMNWVRQAPGQGLEWMGLINPYNGGTSYNQQFKGRVTITADESTSTAYMELSSLRSEDTAVYYCARDGYDDGPYTMDYWGQGTLVTVSS VL: DIQMTQSPSSLSASVGDRVTITCRTSENIYSFLAWYQQKPGKAPKLLIYNAKTLAKGVPSRFSGSGSGTDFTLTISSLQPEDFATYYCQHHYESPLTFGGGTKVEIK
